Experimental findings from patent publication US20090036382A1, “TGF-Beta Modulators and Use Thereof” (Universita' Degli Studi Di Padova, priority 2006, published 2009) are described below.

In series [1] the test system is mature TGF-β1. Put plainly: CAGA12-lux luciferase reporter in HEK293T cells treated with recombinant TGF-β1. Type of series: cell-based. The settings on record: 5 ng/ml recombinant TGF-β1, expression vector 500 ng, FIG. 2B. As to the method:
(§1) To verify how emilin or the EMI domain can contrast TGF-β1 activity independently from receptor binding, HEK293T cells were transfected with a construct coding luciferase placed under control of a TGF-β activated promoter: CAGA12-lux (Jonk et al., 1998) alone or in combination with a emilin1 expression vector (500 ng) as shown in FIG. 2B. After transfection, cells were treated (black bar) or not treated (white bar) with 5 ng/ml recombinant TGF-1 (lanes 1 and 2). Column bars from 3 to 6 report luciferase expression values in experiments with cells co-transfected with the expression vector for emilin1 (or EMI-domain or emilin1ΔEMI) alone (white bars) or in combination with the vector encoding pro TGF-β1 (black bars). Values show the mean±st. dev.
(In general: A reporter such as luciferase makes a cellular process visible.)

The subject of series [2] is TGF-β3. Briefly: Experiments in Xenopus on interaction of the EMI domain with TGF-β3.
The target of series [3] is T1, pro TGF-β1 processing (Homo sapiens, UniProt P01137).
T1 construct: Flag; expressed in transfected cells; host or cells: HEK293T (A6); mouse embryo fibroblasts (A8)
T1 sequence (P01137 30-390): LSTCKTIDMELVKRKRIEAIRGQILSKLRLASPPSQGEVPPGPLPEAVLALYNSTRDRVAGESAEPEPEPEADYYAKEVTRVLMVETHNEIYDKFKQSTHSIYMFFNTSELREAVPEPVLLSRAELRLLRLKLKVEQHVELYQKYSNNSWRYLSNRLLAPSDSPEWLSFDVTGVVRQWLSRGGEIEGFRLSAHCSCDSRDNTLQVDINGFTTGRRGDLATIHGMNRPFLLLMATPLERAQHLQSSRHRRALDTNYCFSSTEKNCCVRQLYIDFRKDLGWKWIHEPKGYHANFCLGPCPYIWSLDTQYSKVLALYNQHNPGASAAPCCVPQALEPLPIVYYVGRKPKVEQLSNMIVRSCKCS
Put plainly: Western blot of pro TGF-β1 conversion to LAP and mature TGF-β1 in transfected HEK293T cells. Particulars: HEK293T cotransfected; cell extracts anti-LAP, supernatants anti-TGF-β1; FIG. 4D. Type of series: cell-based. From the text: (§2) • The construct for emilin 1 expression was engineered in pCS2 vector (Rupp R. A. et al., 1994, Genes Dev 8, 1311-1323) (for a physical map of the vector, see the site faculty.washington.edu/rtmoon/pcs2+.html) as described (Zanetti M. et al., 2004, Mol Cell Biol 24, 638-650); the vector used for proTGF-β expression in MEF and HEK293T cells is pCDNA3.1 (Invitrogen). Vectors containing the coding sequence for human pro TGF-β are described in Young and Murphy-Ullrich, 2004 (Young and Murphy-Ullrich, 2004, J Biol Chem 279, 38032-38039). The human pro TGF-β cDNA sequence is reported in the data bank (NP_000660; protein 000651). • The vector for Furin/SPC 1 expression is pCDNA3.1 (Invitrogen) • p15 and CAGA 12 promoter fragments are described in Jonk L. J. et al., 1998, J Biol Chem 273, 21145-21152 […]. • Constructs containing Flag sequences are described in Young G. D and Murphy-Ullrich J E, 2004, J Biol Chem 279, 38032-38039. • Constructs containing the Flag epitope (e.g. Flag-EMI-domain-GPI) were prepared as described in Chubet R G et al. Biotechniques 1996; 20(1):136-141 and detected by anti-Flag antibody (Kodak Inc.). • Constructs containing the GPI anchor were prepared as described in the Manual “Current Protocols in Cell Biology” Howard R. Petty Wayne State University, Detroit, Mich.; Juan S. Bonifacino, Mary Dasso, Joe B. Harford, Jennifer Lippincott-Schwartz, and Kenneth M. Yamada (eds.), Copyright C 2003 John Wiley & Sons, Inc. (GPI-anchor). In the construct Flag-EMI domain-GPI, the Flag sequence was inserted at the N-terminus after the signal peptide, while the GPI-anchor sequence was placed at the COOH-terminal end. • The construct emilin 1-KDEL was obtained by inserting the KDEL coding sequence described by Munro S., and Pelham, H. R., 1987, Cell 48, 899-907 upstream the emilin 1 STOP codon. • The construct containing the type II TGF-β receptor with HA epitope was described in Wrana J. L. et al., 1994, Nature 370, 341-347. • supplier of the drugs used: SP600125 (Calbiochem), SB431542 (Tocris). • Purified recombinant LAP and TGF-β1 proteins were purchased from (R&D Systems)
To verify whether emilin or its EMI domain inhibit TGF-β or its precursor, HEK293T cells were cotransfected with plasmids driving the expression of pro TGF-β1 (fused to the FLAG-domain, even though the antibody used were directed at LAP and TGF-β proteins) and emilin-1 (or EMI-domain). […] The anti-Flag antibody used was obtained from Kodak Inc; for the preparation of Flag constructs, see Younjg and Murphy-Ullrich (Young and Murphy-Ullrich, 2004).
As reported in the summary scheme above FIG. 5A, HEK293T cells were transfected with the plasmid encoding pro TGF-β1 (lane 1) and cotransfected with emilin-1 (lane 3) or treated with decanoyl-RVKR-CMK peptide (Decanoyl-Arg-Val-Lys-Arg-chloromethylketone, Alexis Corporation, Lausen, Switzerland) (lane 2) at a concentration of 100 μM. The peptide is an irreversible and competitive inhibitor of furin proprotein convertase and of other SPC family members (Proprotein Convertase); in addition, it inhibits pro-MMP2 dependent furin activation. The supernatant was then loaded on SDS-PAGE and detected by Western-blot with anti-TGF-β1 antibody. […] An increase of the precursor band in lanes 2 and 3 is […] to the decrease of TGF-β. Therefore it can be concluded that this assay detects an effect of emilin-1 on TGF-β1 processing that is similar to the effect of Furin inhibitors.
For orientation: Immunoblotting shows a protein as a band on a membrane.

Series [4] concerns pro TGF-β1. Briefly: CAGA12-lux luciferase reporter in HEK293T cells co-transfected with pro TGF-β1 vector. Particulars: CAGA12-lux, co-transfection with pro TGF-β1 vector, FIG. 2B, 2C. Type of series: cell-based, human.
Source text: as §2, §1
As further validation of the above observations, HEK293T cells were cotransfected with expression plasmids carrying the cDNAs shown in the summary scheme above the figure, along with CAGA12-lux and CMV-lacZ constructs, and luciferase expression levels were measured.

B1: EMI domain: cysteine-rich domain of emilin-1, residues 55-131, SEQ ID NO 2; in some experiments Flag-tagged and GPI-anchored (protein)
chain: RHRNWCAYVVTRTVSCVLEDGVETYVKYQPCAWGQPQCPQSIMYRRFLRPRYRVAYKTVTDMEWRCCQGYGGDDCAE
modifications: sometimes Flag tag and GPI anchor; homo sapiens
notes: in some experiments Flag-tagged and GPI-anchored
In the case of B1, the “Effect on luciferase expression induced by mature TGF-β” value in series [1] is on record as “does not antagonize mature TGF-β”. In addition, the “Interaction with TGF-β3” value in series [2] is recorded as “interaction”. For the same molecule, in series [3], the “Conversion of pro TGF-β1 to LAP and mature TGF-β1 (band intensity)” value is “inhibit the conversion of pro TGF-β1”. Further, the “Effect on luciferase expression induced by pro TGF-β1” value in series [4] is listed as “inhibits pro TGF-β”.
